This data set can be described thus: collision cross section of modified peptide (TIMS, N2, iRT-aligned); higher = larger / more extended gas-phase ion. In a few lines:
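On a timsTOF Pro/HT (dda-PASEF, nitrogen, ~2.4 mbar), synthetic peptide pools were analysed after a 120-min nanoflow C18 separation at 60 °C and identified in MaxQuant. Three reference ions served for 1/K0 calibration, with run-wise alignment to the median iRT peptide deviation. Collision cross section comes from the Mason-Schamp equation, using the most abundant feature per charge state averaged over 1–3 technical replicates.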

[1] abbreviates: charge state: 2, modification: HexNAc (ST).
Setting [2] is: charge state: 2, modification: Citrullination (R).
Where [3] appears, read: charge state: 2, modification: Methyl (R).
[4] abbreviates: charge state: 3, modification: Methyl (R).
[5] abbreviates: charge state: 2, modification: Acetyl (K).
[6] abbreviates: charge state: 2, modification: Biotin.
Setting [7] is: charge state: 2, modification: Butyryl.
Where [8] appears, read: charge state: 2, modification: Crotonyl.
The mark [9] stands for this setting: charge state: 2, modification: Dimethyl (K).
Where [10] appears, read: charge state: 2, modification: Formyl.
[11] abbreviates: charge state: 2, modification: Glutarylation.
Where [12] appears, read: charge state: 2, modification: GlyGly (K).
Where [13] appears, read: charge state: 2, modification: Malonyl.
Setting [14] is: charge state: 2, modification: Propionyl.
Setting [15] is: charge state: 2, modification: Succinyl.
Where [16] appears, read: charge state: 2, modification: Trimethyl (K).
[17] abbreviates: charge state: 2, modification: hydroxyisobutyryl.
The mark [18] stands for this setting: charge state: 3, modification: Citrullination (R).
Setting [19] is: charge state: 3, modification: Dimethyl (K).
Where [20] appears, read: charge state: 3, modification: GlyGly (K).
The mark [21] stands for this setting: charge state: 2, modification: Methyl (K).
The mark [22] stands for this setting: charge state: 3, modification: Methyl (K).
[23] abbreviates: charge state: 3, modification: Trimethyl (K).
The mark [24] stands for this setting: charge state: 3, modification: Acetyl (K).
The mark [25] stands for this setting: charge state: 3, modification: Butyryl.
Where [26] appears, read: charge state: 3, modification: Crotonyl.
The mark [27] stands for this setting: charge state: 3, modification: Formyl.

± gives the standard deviation.

Turning to SFEDIHQYR [_SFEDIHQY(Phospho (Y))R_], the collision cross section (charge state: 2, modification: Phospho (Y)) is 367.21 ± 0.78 Å².

On to “SFSASGAQIVSR [_SFSASGAQIVS(HexNAc (ST))R_]”, for which the collision cross section under setting [1] came out at 387.57 ± 0.63 Å².

“SGATAGAAGGRGK [_SGATAGAAGGR(Citrullination (R))GK_]” came in with a collision cross section under setting [2] of 331.61 ± 0.28 Å².

Consider “SGATAGAAGGRGK [_SGATAGAAGGR(Methyl (R))GK_]”, for which the collision cross section by setting is: under setting [3], 366.66 ± 1.5 Å²; under setting [4], 448.31 ± 3.9 Å².

Under setting [5], SGFGKFER [_SGFGK(Acetyl (K))FER_] showed a collision cross section of 331.68 ± 1.9 Å².

Turning to SGFGKFER [_SGFGK(Biotin)FER_], the collision cross section under setting [6] was found to be 352.97 Å².

Regarding SGFGKFER [_SGFGK(Butyryl)FER_], the collision cross section under setting [7] is reported as 337.09 ± 1.2 Å².

The sequence SGFGKFER [_SGFGK(Crotonyl)FER_] gave a collision cross section under setting [8] of 337.57 ± 1.3 Å².

SGFGKFER [_SGFGK(Dimethyl (K))FER_]: the collision cross section under setting [9] came to 334.57 ± 1.1 Å².

With SGFGKFER [_SGFGK(Formyl)FER_], the collision cross section under setting [10] came out at 326.95 ± 0.99 Å².

Sequence SGFGKFER [_SGFGK(Gluratylation)FER_] registered a collision cross section under setting [11] of 340.69 ± 0.69 Å².

Under setting [12], SGFGKFER [_SGFGK(GlyGly (K))FER_] displayed a collision cross section of 340.43 ± 0.74 Å².

SGFGKFER [_SGFGK(Malonyl)FER_]: under setting [13], the collision cross section was found to be 335.56 Å².

Sequence SGFGKFER [_SGFGK(Propionyl)FER_] yielded a collision cross section under setting [14] of 336.62 ± 0.34 Å².

With SGFGKFER [_SGFGK(Succinyl)FER_], the collision cross section under setting [15] is recorded as 336.55 ± 1.3 Å².

The sequence SGFGKFER [_SGFGK(Trimethyl (K))FER_] came in with a collision cross section under setting [16] of 339.14 Å².

For the sequence “SGFGKFER [_SGFGK(hydroxyisobutyryl)FER_]”, the collision cross section under setting [17] is on record as 340.58 ± 1.9 Å².

With “SGGGYGGDRGGGYGGDR [_SGGGYGGDR(Citrullination (R))GGGYGGDR_]”, the collision cross section under setting [2] is on record as 393.58 ± 0.28 Å² and the collision cross section under setting [18] is recorded as 470.6 ± 4.1 Å².

With “SGGGYGGDRGGGYGGDR [_SGGGYGGDR(Methyl (R))GGGYGGDR_]”, under setting [4], the collision cross section was found to be 461.83 ± 3 Å².

“SGGGYGGDRSSGGGYSGDR [_SGGGYGGDR(Methyl (R))SSGGGYSGDR_]”: the collision cross section under setting [4] came to 484.52 ± 1.5 Å².

Regarding “SGGRGVSVSSAR [_SGGR(Citrullination (R))GVSVSSAR_]”, the collision cross section under setting [2] stood at 351.18 ± 4.8 Å².

Regarding “SGGRGVSVSSAR [_SGGR(Methyl (R))GVSVSSAR_]”, the collision cross section was determined as 362.59 ± 13 Å² under setting [3] and 443.44 ± 0.81 Å² under setting [4].

On to “SGGYGGSRDYYSSR [_SGGYGGSR(Citrullination (R))DYYSSR_]”, for which the collision cross section under setting [2] was 397.63 ± 1.4 Å².

Under setting [4], “SGGYGGSRDYYSSR [_SGGYGGSR(Methyl (R))DYYSSR_]” came in with a collision cross section of 475.52 ± 2 Å².

Turning to “SGKFTQQDIDEAK [_SGK(Acetyl (K))FTQQDIDEAK_]”, the collision cross section under setting [5] is listed as 412.93 ± 2.8 Å².

Under setting [6], SGKFTQQDIDEAK [_SGK(Biotin)FTQQDIDEAK_] displayed a collision cross section of 433.94 ± 2.7 Å².

Turning to “SGKFTQQDIDEAK [_SGK(Butyryl)FTQQDIDEAK_]”, the collision cross section under setting [7] worked out at 419.52 ± 1.7 Å².

“SGKFTQQDIDEAK [_SGK(Crotonyl)FTQQDIDEAK_]” showed a collision cross section under setting [8] of 419.28 ± 0.55 Å².

As to “SGKFTQQDIDEAK [_SGK(Dimethyl (K))FTQQDIDEAK_]”, the collision cross section came out at 408.63 Å² under setting [9] and 466.84 ± 1.6 Å² under setting [19].

Regarding SGKFTQQDIDEAK [_SGK(Formyl)FTQQDIDEAK_], under setting [10], the collision cross section was found to be 408.45 ± 0.19 Å².

Consider “SGKFTQQDIDEAK [_SGK(Gluratylation)FTQQDIDEAK_]”, for which, under setting [11], the collision cross section came to 415.95 ± 0.14 Å².

Take “SGKFTQQDIDEAK [_SGK(GlyGly (K))FTQQDIDEAK_]”: the collision cross section under setting [12] amounted to 414.34 ± 1.9 Å² and the collision cross section under setting [20] is 476.61 ± 1.1 Å².

“SGKFTQQDIDEAK [_SGK(Malonyl)FTQQDIDEAK_]” came in with a collision cross section under setting [13] of 410.91 ± 0.58 Å².

“SGKFTQQDIDEAK [_SGK(Methyl (K))FTQQDIDEAK_]” displayed a collision cross section under setting [21] of 408.84 ± 1.9 Å² and a collision cross section under setting [22] of 468.01 ± 3.6 Å².

As for “SGKFTQQDIDEAK [_SGK(Propionyl)FTQQDIDEAK_]”, the collision cross section under setting [14] turned out to be 414.71 ± 0.97 Å².

The sequence “SGKFTQQDIDEAK [_SGK(Succinyl)FTQQDIDEAK_]” gave a collision cross section under setting [15] of 414.39 ± 0.54 Å².

The sequence “SGKFTQQDIDEAK [_SGK(Trimethyl (K))FTQQDIDEAK_]” registered a collision cross section under setting [16] of 408.18 ± 1.1 Å² and a collision cross section under setting [23] of 472.62 ± 0.88 Å².

Take “SGKFTQQDIDEAK [_SGK(hydroxyisobutyryl)FTQQDIDEAK_]”: the collision cross section under setting [17] is recorded as 423.01 ± 2.3 Å².

“SGNLTEDDKHNNAK [_SGNLTEDDK(Acetyl (K))HNNAK_]”: the collision cross section reads like this: under setting [5], 418.78 ± 2.4 Å²; under setting [24], 469.35 ± 2.1 Å².

“SGNLTEDDKHNNAK [_SGNLTEDDK(Butyryl)HNNAK_]”: the collision cross section is recorded as 425.09 ± 0.55 Å² under setting [7] and 472.83 ± 2.7 Å² under setting [25].

Consider “SGNLTEDDKHNNAK [_SGNLTEDDK(Crotonyl)HNNAK_]”, for which the collision cross section is 426.1 Å² under setting [8] and 469.87 ± 1.6 Å² under setting [26].

As to “SGNLTEDDKHNNAK [_SGNLTEDDK(Dimethyl (K))HNNAK_]”, under setting [19], the collision cross section was 479.84 ± 1.3 Å².

Take “SGNLTEDDKHNNAK [_SGNLTEDDK(Formyl)HNNAK_]”: the collision cross section is 415.1 ± 1.8 Å² under setting [10] and 466.8 ± 1.3 Å² under setting [27].

On to “SGNLTEDDKHNNAK [_SGNLTEDDK(Gluratylation)HNNAK_]”, for which the collision cross section is, setting by setting: under setting [11], 428.34 ± 1.5 Å²; (charge state: 3, modification: Glutarylation) 486.64 ± 2.8 Å².

On to “SGNLTEDDKHNNAK [_SGNLTEDDK(GlyGly (K))HNNAK_]”, for which the collision cross section is 432.48 ± 1.6 Å² under setting [12] and 495.64 ± 0.34 Å² under setting [20].

Regarding “SGNLTEDDKHNNAK [_SGNLTEDDK(Malonyl)HNNAK_]”, the collision cross section under setting [13] came to 417.21 ± 1.6 Å².

In the case of “SGNLTEDDKHNNAK [_SGNLTEDDK(Methyl (K))HNNAK_]”, the collision cross section is 417.49 ± 1.1 Å² under setting [21] and 487.35 ± 2.7 Å² under setting [22].

Turning to “SGNLTEDDKHNNAK [_SGNLTEDDK(Propionyl)HNNAK_]”, the collision cross section by setting is: under setting [14], 423.13 ± 0.36 Å²; (charge state: 3, modification: Propionyl) 471.16 Å².

As to “SGNLTEDDKHNNAK [_SGNLTEDDK(Succinyl)HNNAK_]”, the collision cross section under setting [15] is on record as 424.64 ± 1.1 Å² and the collision cross section (charge state: 3, modification: Succinyl) was 478.73 ± 2.5 Å².

As for “SGNLTEDDKHNNAK [_SGNLTEDDK(Trimethyl (K))HNNAK_]”, the collision cross section runs as follows: under setting [16], 419.32 ± 0.75 Å²; under setting [23], 469.66 ± 1.5 Å².

For “SGNLTEDDKHNNAK [_SGNLTEDDK(hydroxyisobutyryl)HNNAK_]”, the collision cross section under setting [17] was 427.86 ± 0.82 Å² and the collision cross section (charge state: 3, modification: hydroxyisobutyryl) was 488.54 ± 1.1 Å².

The sequence “SGRGGNFGFGDSR [_SGR(Citrullination (R))GGNFGFGDSR_]” had a collision cross section under setting [2] of 379.38 ± 0.54 Å².

With “SGRGGNFGFGDSR [_SGR(Methyl (R))GGNFGFGDSR_]”, the collision cross section under setting [4] is 452.71 ± 3.1 Å².

On to “SGYSSPGSPGTPGSR [_SGYSSPGSPGTPGS(HexNAc (ST))R_]”, for which the collision cross section under setting [1] is given as 394.87 ± 0.13 Å².

Take “SHLRHAIPSAER [_SHLR(Citrullination (R))HAIPSAER_]”: the collision cross section turned out to be 388.58 ± 0.81 Å² under setting [2] and 492.66 ± 4.6 Å² under setting [18].

“SHLRHAIPSAER [_SHLR(Methyl (R))HAIPSAER_]”: the collision cross section is given as 404.4 Å² under setting [3] and 477.29 ± 19 Å² under setting [4].

In the case of SISQSISGQK [_S(HexNAc (ST))ISQSISGQK_], the collision cross section under setting [1] is recorded as 366.39 ± 0.12 Å².

As for “SITHSTVGSKGEK [_SITHSTVGSK(Acetyl (K))GEK_]”, the collision cross section reads like this: under setting [5], 391.66 ± 1.8 Å²; under setting [24], 440.5 ± 4 Å².

With “SITHSTVGSKGEK [_SITHSTVGSK(Butyryl)GEK_]”, the collision cross section is, setting by setting: under setting [7], 396.1 ± 0.79 Å²; under setting [25], 440.88 ± 2.8 Å².

For “SITHSTVGSKGEK [_SITHSTVGSK(Crotonyl)GEK_]”, the collision cross section under setting [8] is 402.71 ± 8.6 Å² and the collision cross section under setting [26] worked out at 442.34 ± 1.6 Å².

With “SITHSTVGSKGEK [_SITHSTVGSK(Dimethyl (K))GEK_]”, the collision cross section is given as 401.87 ± 2.2 Å² under setting [9] and 464.51 ± 2.1 Å² under setting [19].

As for SITHSTVGSKGEK [_SITHSTVGSK(Formyl)GEK_], the collision cross section is, setting by setting: under setting [10], 387.87 ± 1.4 Å²; under setting [27], 435.39 ± 3 Å².

The record behind these values is the supplement of paper PMC10598134.
